Experimental findings from patent US11708609 are described below.

The series concerns the target human recombinant FOXO1 (Origene #TP300477) (UniProt Q12778).

Chain of human recombinant FOXO1 (Origene #TP300477) (Q12778 whole entry): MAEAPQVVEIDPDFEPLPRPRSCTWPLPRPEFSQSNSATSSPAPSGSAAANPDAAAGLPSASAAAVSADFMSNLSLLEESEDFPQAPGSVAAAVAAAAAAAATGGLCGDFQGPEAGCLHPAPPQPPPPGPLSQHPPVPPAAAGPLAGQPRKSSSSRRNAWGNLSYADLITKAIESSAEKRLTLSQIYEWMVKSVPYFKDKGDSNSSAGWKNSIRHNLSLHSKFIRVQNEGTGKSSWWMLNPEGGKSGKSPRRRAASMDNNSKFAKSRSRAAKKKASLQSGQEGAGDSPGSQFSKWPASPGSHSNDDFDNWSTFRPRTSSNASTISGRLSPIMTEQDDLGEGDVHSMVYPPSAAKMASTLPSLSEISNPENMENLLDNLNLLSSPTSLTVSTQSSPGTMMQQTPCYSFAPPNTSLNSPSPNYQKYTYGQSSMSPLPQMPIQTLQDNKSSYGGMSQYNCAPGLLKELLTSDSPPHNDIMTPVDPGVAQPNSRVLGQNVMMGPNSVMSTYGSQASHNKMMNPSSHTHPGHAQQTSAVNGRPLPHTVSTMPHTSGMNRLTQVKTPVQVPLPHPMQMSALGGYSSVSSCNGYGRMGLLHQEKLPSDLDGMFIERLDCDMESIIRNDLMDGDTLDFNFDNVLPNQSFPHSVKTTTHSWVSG
Chain of microtubule-associated Ser/Thr kinase 4 (MAST4), immunoprecipitated from lysates of neuron-differentiated SH-SY5Y cells or of human temporal lobe autopsy samples (chain, as listed by the source): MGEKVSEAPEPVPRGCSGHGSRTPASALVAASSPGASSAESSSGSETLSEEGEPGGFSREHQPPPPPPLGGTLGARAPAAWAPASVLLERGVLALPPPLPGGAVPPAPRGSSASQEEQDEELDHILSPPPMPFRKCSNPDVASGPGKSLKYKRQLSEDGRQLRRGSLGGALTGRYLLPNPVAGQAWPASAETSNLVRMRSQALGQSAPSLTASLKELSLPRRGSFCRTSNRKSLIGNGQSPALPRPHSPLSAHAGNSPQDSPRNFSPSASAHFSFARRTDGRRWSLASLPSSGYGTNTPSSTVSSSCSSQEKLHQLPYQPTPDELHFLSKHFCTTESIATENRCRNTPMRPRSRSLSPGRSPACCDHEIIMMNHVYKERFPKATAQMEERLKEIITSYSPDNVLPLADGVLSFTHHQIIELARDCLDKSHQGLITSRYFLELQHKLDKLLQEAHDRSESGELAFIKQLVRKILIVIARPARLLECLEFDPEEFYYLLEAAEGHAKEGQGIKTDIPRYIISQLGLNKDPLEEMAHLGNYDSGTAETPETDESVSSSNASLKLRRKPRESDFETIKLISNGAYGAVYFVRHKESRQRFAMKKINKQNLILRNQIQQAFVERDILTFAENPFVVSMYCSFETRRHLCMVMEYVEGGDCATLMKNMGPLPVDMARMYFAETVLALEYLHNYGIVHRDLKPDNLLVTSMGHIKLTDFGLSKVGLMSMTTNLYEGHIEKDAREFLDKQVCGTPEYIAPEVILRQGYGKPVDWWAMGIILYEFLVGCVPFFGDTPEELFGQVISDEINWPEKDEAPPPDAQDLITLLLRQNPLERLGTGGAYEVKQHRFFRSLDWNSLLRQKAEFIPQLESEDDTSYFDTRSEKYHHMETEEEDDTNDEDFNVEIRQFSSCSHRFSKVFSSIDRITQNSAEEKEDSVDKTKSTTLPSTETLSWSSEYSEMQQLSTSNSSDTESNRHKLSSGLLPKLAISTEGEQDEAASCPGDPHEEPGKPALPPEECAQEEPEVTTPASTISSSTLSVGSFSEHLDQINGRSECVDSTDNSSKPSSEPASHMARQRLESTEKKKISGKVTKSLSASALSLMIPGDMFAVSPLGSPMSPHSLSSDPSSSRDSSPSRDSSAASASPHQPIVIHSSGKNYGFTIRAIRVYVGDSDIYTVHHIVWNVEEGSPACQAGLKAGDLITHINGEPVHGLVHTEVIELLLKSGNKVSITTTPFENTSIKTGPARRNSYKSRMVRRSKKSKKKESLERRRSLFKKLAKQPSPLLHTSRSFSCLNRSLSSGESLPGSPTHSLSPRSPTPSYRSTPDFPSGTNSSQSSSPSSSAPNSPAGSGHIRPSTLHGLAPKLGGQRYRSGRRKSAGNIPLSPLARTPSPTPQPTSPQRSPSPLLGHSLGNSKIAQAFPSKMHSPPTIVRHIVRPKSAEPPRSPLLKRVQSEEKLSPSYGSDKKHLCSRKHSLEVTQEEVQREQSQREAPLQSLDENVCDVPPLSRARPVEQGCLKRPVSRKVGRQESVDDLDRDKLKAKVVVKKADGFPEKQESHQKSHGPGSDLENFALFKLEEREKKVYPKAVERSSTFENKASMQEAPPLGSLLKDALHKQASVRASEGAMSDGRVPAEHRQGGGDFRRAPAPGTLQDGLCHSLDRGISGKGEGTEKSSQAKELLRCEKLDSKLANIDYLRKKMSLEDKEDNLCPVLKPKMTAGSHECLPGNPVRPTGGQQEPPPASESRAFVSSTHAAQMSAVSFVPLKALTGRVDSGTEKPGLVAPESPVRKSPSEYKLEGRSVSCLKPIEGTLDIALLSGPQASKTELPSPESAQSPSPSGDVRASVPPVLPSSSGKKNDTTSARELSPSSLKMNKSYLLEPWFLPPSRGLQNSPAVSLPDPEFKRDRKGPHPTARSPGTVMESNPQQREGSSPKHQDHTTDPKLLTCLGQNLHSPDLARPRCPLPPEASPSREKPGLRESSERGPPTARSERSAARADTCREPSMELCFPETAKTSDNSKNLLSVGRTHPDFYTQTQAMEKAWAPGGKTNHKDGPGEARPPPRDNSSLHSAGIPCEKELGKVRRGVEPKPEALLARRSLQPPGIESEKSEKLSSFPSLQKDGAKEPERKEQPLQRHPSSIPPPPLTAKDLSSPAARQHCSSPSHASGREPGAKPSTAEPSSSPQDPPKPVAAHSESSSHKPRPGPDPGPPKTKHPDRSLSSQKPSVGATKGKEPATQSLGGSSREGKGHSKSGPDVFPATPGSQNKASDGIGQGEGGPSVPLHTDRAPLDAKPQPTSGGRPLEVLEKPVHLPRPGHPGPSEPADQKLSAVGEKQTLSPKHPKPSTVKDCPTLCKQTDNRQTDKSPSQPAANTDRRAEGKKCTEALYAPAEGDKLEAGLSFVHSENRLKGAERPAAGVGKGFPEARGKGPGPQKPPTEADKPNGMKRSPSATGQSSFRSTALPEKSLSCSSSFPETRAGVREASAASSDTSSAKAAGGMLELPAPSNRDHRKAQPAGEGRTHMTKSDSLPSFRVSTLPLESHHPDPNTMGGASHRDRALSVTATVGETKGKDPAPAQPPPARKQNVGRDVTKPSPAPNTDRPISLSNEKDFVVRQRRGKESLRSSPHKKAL

As for “MAST4E682A, putative kinase-null MAST4 mutant”, the “FOXO1 phosphorylation in an in vitro kinase assay with immunoprecipitated MAST4 mutant” value is given as “Immunoprecipitates of MAST4E682A did not phosphorylate FOXO1 (not shown)”.

In the case of “microtubule-associated Ser/Thr kinase 4 (MAST4), immunoprecipitated from lysates of neuron-differentiated SH-SY5Y cells or of human temporal lobe autopsy samples”, the “FOXO1 phosphorylation (pSer-FOXO1) in an in vitro kinase assay with immunoprecipitated MAST4 and recombinant FOXO1” value is listed as “Increased FOXO1 phosphorylation was observed in MAST4 immunoprecipitates from cells treated with 5 µM but not 50 µM 27OHC”.
